Measured values published in PMC2871490 (The Journal of Biological Chemistry, 2010).
Values belong to the binder of their own block, whether it stands above or below them.

What was measured:
Assay in all cases: pull-down
[1] = target: His6-Daam1 CT (human, UniProt Q9Y4D1 490-1078)
[2] = target: T1, His6-Daam1 NT (human, UniProt Q9Y4D1 41-477)
T1 sequence: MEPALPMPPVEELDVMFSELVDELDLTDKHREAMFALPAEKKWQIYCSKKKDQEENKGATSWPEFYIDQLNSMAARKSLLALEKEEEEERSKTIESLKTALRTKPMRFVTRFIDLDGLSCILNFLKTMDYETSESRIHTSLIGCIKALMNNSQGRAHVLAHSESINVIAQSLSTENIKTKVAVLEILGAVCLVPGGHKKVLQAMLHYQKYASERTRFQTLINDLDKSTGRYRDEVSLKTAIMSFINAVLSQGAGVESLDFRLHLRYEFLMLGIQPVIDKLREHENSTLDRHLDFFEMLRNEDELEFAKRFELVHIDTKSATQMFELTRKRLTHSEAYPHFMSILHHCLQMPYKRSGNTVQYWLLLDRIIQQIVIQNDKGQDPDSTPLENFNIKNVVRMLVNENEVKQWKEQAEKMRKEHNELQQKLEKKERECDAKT

[3] = target: T2, His6-Fli-I G1–6 (human, UniProt Q13045 461-1269)
T2 sequence: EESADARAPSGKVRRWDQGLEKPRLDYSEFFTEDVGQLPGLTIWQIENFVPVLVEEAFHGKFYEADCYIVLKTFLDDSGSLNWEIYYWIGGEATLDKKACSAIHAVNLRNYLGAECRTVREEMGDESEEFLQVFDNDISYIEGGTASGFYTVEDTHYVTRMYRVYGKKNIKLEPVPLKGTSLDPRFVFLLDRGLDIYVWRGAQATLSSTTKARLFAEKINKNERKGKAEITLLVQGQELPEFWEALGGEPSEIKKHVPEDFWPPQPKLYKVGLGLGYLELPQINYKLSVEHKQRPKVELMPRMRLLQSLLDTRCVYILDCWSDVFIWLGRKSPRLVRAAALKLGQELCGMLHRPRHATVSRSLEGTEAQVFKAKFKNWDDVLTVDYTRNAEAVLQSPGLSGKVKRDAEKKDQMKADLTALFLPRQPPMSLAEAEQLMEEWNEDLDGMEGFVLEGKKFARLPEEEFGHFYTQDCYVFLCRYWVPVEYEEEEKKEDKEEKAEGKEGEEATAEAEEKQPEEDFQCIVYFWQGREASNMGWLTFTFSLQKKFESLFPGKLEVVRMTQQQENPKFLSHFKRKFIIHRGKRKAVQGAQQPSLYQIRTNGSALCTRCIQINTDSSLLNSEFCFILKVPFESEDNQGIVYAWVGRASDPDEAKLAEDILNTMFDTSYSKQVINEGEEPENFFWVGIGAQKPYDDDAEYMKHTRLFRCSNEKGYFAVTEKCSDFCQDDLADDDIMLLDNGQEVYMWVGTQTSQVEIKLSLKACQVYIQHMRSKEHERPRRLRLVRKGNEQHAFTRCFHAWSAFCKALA

[4] = target: GST-Daam1 CT WT (human, UniProt Q9Y4D1 490-1078)
[5] = target: GST-Daam1 CT L1040A (human, UniProt Q9Y4D1 490-1078, L1040A)

B2: GST-Daam1 DAD (domain or fragment)
chain: NMRKKKEEEERRARMEAQLKEQRERERKMRKAKENSEESGEFDDLVSALRSGEVFDKDLSKLKRNRKRITNQMTDSSRERPITKLNF
binding result [2]: binds
binding result [3]: binds

B4: GST-Fli-I G4–6 (domain or fragment)
chain: KKDQMKADLTALFLPRQPPMSLAEAEQLMEEWNEDLDGMEGFVLEGKKFARLPEEEFGHFYTQDCYVFLCRYWVPVEYEEEEKKEDKEEKAEGKEGEEATAEAEEKQPEEDFQCIVYFWQGREASNMGWLTFTFSLQKKFESLFPGKLEVVRMTQQQENPKFLSHFKRKFIIHRGKRKAVQGAQQPSLYQIRTNGSALCTRCIQINTDSSLLNSEFCFILKVPFESEDNQGIVYAWVGRASDPDEAKLAEDILNTMFDTSYSKQVINEGEEPENFFWVGIGAQKPYDDDAEYMKHTRLFRCSNEKGYFAVTEKCSDFCQDDLADDDIMLLDNGQEVYMWVGTQTSQVEIKLSLKACQVYIQHMRSKEHERPRRLRLVRKGNEQHAFTRCFHAWSAFCKALA
binding result [1]: binds

The remaining lines, values ahead:

binding result [1]: binds
B1: GST-Daam1 NT (domain or fragment)
chain: T1 sequence

binding result [4]: binds
binding result [1]: binds
binding result [5]: binds
B3: His6-Fli-I G4–6 (domain or fragment)
chain: B4 chain
